From article PMC12757795, “WRKY45 is a negative regulator of Botrytis cinerea resistance through the JA/ET signaling pathway in Arabidopsis” come the findings set out here.

B1: ORA59-W2 (dsDNA)
DNA 1: TAATCGCATCGCATGTTTGACCCATTTAGCCGCATAT
DNA 2: ATATGCGGCTAAATGGGTCAAACATGCGATGCGATTA
B2: ORA59-W1-M (dsDNA)
DNA 1: CGATTTAGCCGCATGTTTTTCCTATTTTGCCCACATA
DNA 2: TATGTGGGCAAAATAGGAAAAACATGCGGCTAAATCG
B3: ORA59-W3 (dsDNA)
DNA 1: CCATCTAACAACAAATTTGACCAAAAGTTTCCTTATT
DNA 2: AATAAGGAAACTTTTGGTCAAATTTGTTGTTAGATGG
B4: ORA59-W6 (dsDNA)
DNA 1: GAAACCGACGTTAGGTTTGACTATTTTATTTACAGTC
DNA 2: GACTGTAAATAAAATAGTCAAACCTAACGTCGGTTTC

This data set deals with GST-WRKY45 (UniProt Q9S763 1-147). Kind of data set: EMSA; Beyotime chemiluminescent EMSA kit binding buffer (composition, salt and pH not stated), room temperature, 20 min, 6% native PAGE; unlabeled competitor 5x and 50x or 50-100x (Methods). To be noted: protein: recombinant; tags: GST; label: biotin (end); blunt. (In general: Mobility shift assays separate free from complexed probe on a gel.)
GST-WRKY45, sequence (Q9S763 whole entry): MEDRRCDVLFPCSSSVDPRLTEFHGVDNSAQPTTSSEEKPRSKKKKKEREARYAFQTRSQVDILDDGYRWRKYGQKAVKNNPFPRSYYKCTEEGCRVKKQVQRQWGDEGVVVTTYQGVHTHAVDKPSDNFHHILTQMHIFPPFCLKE
With B1, the binding result is “binds”.

For the molecule B2, the binding result was “no binding”.

In the case of B3, the binding result is on record as “binds”.

As for B4, the binding result is recorded as “binds”.
